Publication PMC10897435

How the values were obtained:
[1] = target: complex I from ndufs4-/- mouse (heart, kidney) (mouse) (UniProt Q91YT0); assay: cryo-EM structure; complex I purified whole from ndufs4-/- mouse heart, cross-linked twice with BS3 (0.25 mM during solubilisation, 2.5 mM before the grids), 0.05% DDM, PEGylated gold grids; focused classification into three classes
ACADVL (mouse), P50544 = target: T1, ACADVL (mouse), P50544; assay: as above; settings: remark: other sources report otherwise
T1 chain: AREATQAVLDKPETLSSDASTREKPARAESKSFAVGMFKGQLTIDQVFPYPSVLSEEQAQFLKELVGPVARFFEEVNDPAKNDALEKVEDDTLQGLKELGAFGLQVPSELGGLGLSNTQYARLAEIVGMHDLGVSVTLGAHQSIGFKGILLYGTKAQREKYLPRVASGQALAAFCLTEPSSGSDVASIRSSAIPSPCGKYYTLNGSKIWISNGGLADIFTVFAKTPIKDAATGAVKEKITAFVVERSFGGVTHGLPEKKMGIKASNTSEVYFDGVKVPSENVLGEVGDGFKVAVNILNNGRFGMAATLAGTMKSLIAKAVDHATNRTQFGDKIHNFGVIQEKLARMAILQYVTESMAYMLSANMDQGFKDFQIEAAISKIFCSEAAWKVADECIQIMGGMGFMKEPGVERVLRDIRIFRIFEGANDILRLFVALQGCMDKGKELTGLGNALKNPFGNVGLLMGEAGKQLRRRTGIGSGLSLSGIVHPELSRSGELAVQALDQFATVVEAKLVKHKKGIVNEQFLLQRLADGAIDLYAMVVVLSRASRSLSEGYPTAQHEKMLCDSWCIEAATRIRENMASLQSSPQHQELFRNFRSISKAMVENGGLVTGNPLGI

Chain of UniProt Q91YT0 (Q91YT0 whole entry, looked up, one chain of several): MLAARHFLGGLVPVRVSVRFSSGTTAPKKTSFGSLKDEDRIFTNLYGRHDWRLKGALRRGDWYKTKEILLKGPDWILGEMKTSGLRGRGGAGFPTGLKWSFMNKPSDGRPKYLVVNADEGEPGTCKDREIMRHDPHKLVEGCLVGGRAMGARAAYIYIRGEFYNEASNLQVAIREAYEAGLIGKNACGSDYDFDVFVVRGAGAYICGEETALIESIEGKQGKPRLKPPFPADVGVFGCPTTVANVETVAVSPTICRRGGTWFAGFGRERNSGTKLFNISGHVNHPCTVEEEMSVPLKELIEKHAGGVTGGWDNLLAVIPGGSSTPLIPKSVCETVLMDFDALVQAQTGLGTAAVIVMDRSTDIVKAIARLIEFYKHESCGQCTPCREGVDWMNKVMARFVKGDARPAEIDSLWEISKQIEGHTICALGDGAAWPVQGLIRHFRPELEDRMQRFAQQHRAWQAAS

## assembly factor NDUFAF2 (natural protein)
[1]
  percent of the complex I particles that contain it: 14%

B1: ACADVL, P50544 42-656 (natural protein)
chain: AREATQAVLDKPETLSSDASTREKPARAESKSFAVGMFKGQLTIDQVFPYPSVLSEEQAQFLKELVGPVARFFEEVNDPAKNDALEKVEDDTLQGLKELGAFGLQVPSELGGLGLSNTQYARLAEIVGMHDLGVSVTLGAHQSIGFKGILLYGTKAQREKYLPRVASGQALAAFCLTEPSSGSDVASIRSSAIPSPCGKYYTLNGSKIWISNGGLADIFTVFAKTPIKDAATGAVKEKITAFVVERSFGGVTHGLPEKKMGIKASNTSEVYFDGVKVPSENVLGEVGDGFKVAVNILNNGRFGMAATLAGTMKSLIAKAVDHATNRTQFGDKIHNFGVIQEKLARMAILQYVTESMAYMLSANMDQGFKDFQIEAAISKIFCSEAAWKVADECIQIMGGMGFMKEPGVERVLRDIRIFRIFEGANDILRLFVALQGCMDKGKELTGLGNALKNPFGNVGLLMGEAGKQLRRRTGIGSGLSLSGIVHPELSRSGELAVQALDQFATVVEAKLVKHKKGIVNEQFLLQRLADGAIDLYAMVVVLSRASRSLSEGYPTAQHEKMLCDSWCIEAATRIRENMASLQSSPQHQELFRNFRSISKAMVENGGLVTGNPLGI
ACADVL (mouse), P50544
  stoichiometry N: 2
